Test results reported in publication PMC4323031 (Malaria Journal, 2015).

Molecular target: T1, mE-ERH, fusion protein comprising the EGF-like domains of MSP1-19, MSP8 and MSP4 (Plasmodium falciparum, 3D7 assumed from …, UniProt Q7KWJ2)
T1 construct: source: Nicotiana benthamiana leaves (agroinfiltration, ER-retained), purified
Assay: SPR
Conditions: both partners purified

B1: recombinant 2.44IgG1 (chimeric mouse-human IgG1:kappa1 mAb) (antibody, V domains shown)
VH: DVQLQESGPGLVKPSQSLSLTCTVTGYSITSDFAWNWIRQFPGNRLEWMGYMGYTGSTSYNPSLRGRISITRDTSKNQFFLQLNSVTTEDTATYYCARGDYYGSRGYFDVWGAGTTVTVSS
VL: EIVLTQSPALMAASPGEKVTITCSVSSSIRSSNLHWYQQKSDTSPKPWIYGTSNLASGVPVRFSGSGSGTSYSLTISTMEAEDAATYYCQQWSSYPFTFGSGTKLEIK
notes: also called recombinant mAb; recombinant antibody
Kd: 10.2 nM
koff: 0.000926 s⁻¹
kon: 90400 M⁻¹ s⁻¹
